Assay results: US20240207421A1, “NERVE TARGETING PEPTIDES AND METHODS OF USE” (ALUME BIOSCIENCES, INC., priority 2020, published 2024)

Key:
[1] = molecular target: T1, Human Myelin Basic Protein (Homo sapiens, UniProt P02686); assay: phage display, NGS count
Target sequence in this assay (P02686 135-304 limits assumed): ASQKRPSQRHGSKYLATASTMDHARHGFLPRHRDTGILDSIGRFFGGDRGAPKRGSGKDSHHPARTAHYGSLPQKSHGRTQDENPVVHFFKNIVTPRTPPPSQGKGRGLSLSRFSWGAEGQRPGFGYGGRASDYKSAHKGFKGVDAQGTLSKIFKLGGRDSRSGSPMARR

[2] = molecular target: T1, Human Myelin Basic Protein; assay: Phage display library screening (Example 2, Python script analysis), binding to Human Myelin Basic Protein; parameters: Enzo 200-606-M001 from human; purchased Enzo 200-606-M001; host or cells: human brain (tissue-derived); settings: R3 Myelin Basic Protein; combined unique sequence count, Python/R script analysis
Procedure: Phage display library screens were used to identify peptides that bind to target proteins (including specific laminin trimers) that are expressed in human nerves, as described in Table 3. These screens were also carried out to identify peptides that could bind selectively to nerves versus muscle. Such peptides could therefore be useful for systemic in-vivo labeling of nerves during fluorescence assisted surgery. Specifically, m 13 phage libraries expressing 7 or 12 random amino acid peptides, or a cyclic peptide CX7C, on the N-terminus of the minor coat protein pIII (New England Biolabs; NEB) were processed through multiple rounds of selection for binding to target proteins expressed in nerves, or to excised human nerves, nerve extracts, or muscle, as described further below.
For screening against the specified target proteins in Table 1, including LN211, LN411, LN421, and LN521, the phage library was processed by up to 4 binding and wash cycles. For selection, phage libraries were incubated for up to 24 hours at 4° C. in 96 well plates that had been coated with one of the target proteins. Plates were then washed with PBS and phage were eluted using 0.2M glycine pH 2.0. Phage supernatants where then neutralized with Tris pH 9.0 prior to plating on TGI bacteria and LB agar plates. Colonies were counted to determine titer followed by DNA preparation of pools of phage and NextGen sequencing. After rounds of selection, phage were pooled and amplified for iterative selection. Phage that were bound at each round were sequenced. NextGen sequencing of pools after 2, 3 and 4 rounds of selection was used to isolate candidate sequences that were analyzed further to identify those that specifically bound each unique target protein.
Python Script Analysis: For all NEB sequence datasets, a python script was used to translate, trim, and filter the peptide sequences. The script translated the nucleotide sequences, translating amber codons as glutamine in peptide sequences, and then trimmed the end sequences that come from the vector. Secondly, the script combined the unique counts of trimmed peptides with identical sequences. […] Another python script was used to group peptides from different assays according to protein target (Myelin Protein Zero, Myelin Proteolipid Protein, Myelin Basic Protein, and Nidogen-2) and also combine the unique sequence counts for each peptide. An R script was written to merge the peptide sequences from different data files and determine peptides specific for each protein target but absent from different protein binding datasets. Peptide sequences were ranked by unique sequence count.
Target sequence in this assay (P02686 134-304): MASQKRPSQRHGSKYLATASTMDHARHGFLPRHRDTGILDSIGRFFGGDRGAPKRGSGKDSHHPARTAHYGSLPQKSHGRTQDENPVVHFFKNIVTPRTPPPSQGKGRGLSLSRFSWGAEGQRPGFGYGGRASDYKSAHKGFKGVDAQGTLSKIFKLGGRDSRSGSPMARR

Substance	Count [1]	Count [2]
WDLPQNR (peptide)	6	
TSRLVST (peptide)	8	
GSPYGWG (peptide)	6	
DVRIWTL (peptide)	6	
SAVLMPP (peptide)	6	
SKLAGFP (peptide)	6	
RSRKHRP (peptide)	6	
IGTRWHQ (peptide)	6	
SLRSVGA (peptide)	7	
NLTYLRF (peptide)	6	
SNAHTLP (peptide)	6	
VAHQRVS (peptide)	8	
GPITHAI (peptide)	7	
HFYGPGP (peptide)	9	
SLDHLRL (peptide)	6	
SSGMLSK (peptide)	7	
LVPPVNH (peptide)	6	
GQWWKML (peptide)	6	
HAHWARL (peptide)	6	
NTPKVLA (peptide)	10	
SLKTTNP (peptide)	6	
VLSPYHN (peptide)	6	
INFPFAV (peptide)	6	

Substance	Count [1]	Count [2]
VSFTLEP (peptide)	7	
TGNLRLY (peptide)	9	
SEGLTLL (peptide)	6	
AIPPRKL (peptide)	6	
WSLPLLS (peptide)	7	
GRHTDVV (peptide)	6	
SYVTVFR (peptide)	6	
SISKIRT (peptide)	7	
RTTDWWT (peptide)	6	
ANLSRSV (peptide)	9	
NPTDTNK (peptide)	8	
ESKSPRE (peptide)	6	
LFRRVTE (peptide)	7	
QYWDILG (peptide)	6	
FQLSYET (peptide)	6	
MTNHGNA (peptide)	7	
MQRLGAD (peptide)	6	
NTSLSFK (peptide)	8	
WDLRHSK (peptide)	6	
NGPNSLQ (peptide)	6	
GVAEVGL (peptide)	6	
SKPHASH (peptide)	6	
NMYPRVT (peptide)	7	

Substance	Count [1]	Count [2]
MNSPLAQ (peptide)	6	
GEPALVT (peptide)	6	
TGPSSAV (peptide)	6	
AISWKGF (peptide)	6	
HFLRPSD (peptide)	7	
ETHYKIA (peptide)	6	
TSPPLAH (peptide)	8	
YTASPRW (peptide)	6	
SGPFPLV (peptide)	6	
HSGPLLP (peptide)	6	
QGTLFDT (peptide)	7	
ALRDTRV (peptide)	6	
YPTYLSY (peptide)	6	
LMLPQLE (peptide)	6	
ASNTSKG (peptide)	7	
WSPRWPS (peptide)	7	
DSYLLSA (peptide)	8	
ESPYPHS (peptide)	7	
HFTFFPI (peptide)	6	
TRIPILL (peptide)	6	
QGAYVRP (peptide)	6	
KIITTKS (peptide)	6	
ALGTRPL (peptide)	7	

Substance	Count [1]	Count [2]
AQLGAFR (peptide)	6	
SEPGTVR (peptide)	7	
QKALPQT (peptide)	6	
KYRHGAE (peptide)	7	
HSSATMS (peptide)	6	
HQPLFPR (peptide)	6	
SWFESHN (peptide)	8	
HPDTLPQ (peptide)	7	
VVDMSTY (peptide)	7	
HPWSHPN (peptide)	6	
SYRSMAP (peptide)	6	
QPIDSTS (peptide)	7	
FKLPWAS (peptide)	7	
TLLTALT (peptide)	7	
HPTGTPT (peptide)	7	
FSAGVGK (peptide)	7	
FVLPNKN (peptide)	8	
ARVPNPL (peptide)	6	
IPIPYRT (peptide)	6	
FSARTNT (peptide)	9	
NLLQGVM (peptide)	7	
AKFTMWV (peptide)	6	
ELKSLRF (peptide)	6	

Substance	Count [1]	Count [2]
THKHMMT (peptide)	6	
SYTLSRS (peptide)	7	
TTTQGHP (peptide)	6	
QTSIMSG (peptide)	6	
WVPDRSL (peptide)	6	
HTGLRSL (peptide)	7	
VPTLRIP (peptide)	8	
HQMRTML (peptide)	6	
SIRMTEI (peptide)	7	
AILTRPP (peptide)	7	
HYSPNVM (peptide)	9	
AVRQTTM (peptide)	7	
SLWTHRT (peptide)	6	
FLNQAPT (peptide)	7	
SKPHASH (R3 Myelin Basic Protein-binding peptide)		6
AISWKGF (R3 Myelin Basic Protein-binding peptide)		6
ESPYPHS (R3 Myelin Basic Protein-binding peptide)		7
FLNQAPT (R3 Myelin Basic Protein-binding peptide)		7
GHSHYILGKPTA (R3 Myelin Basic Protein-binding peptide)		7
DSYLLSA (R3 Myelin Basic Protein-binding peptide)		8
TSRLVST (R3 Myelin Basic Protein-binding peptide)		8
TGNLRLY (R3 Myelin Basic Protein-binding peptide)		9
CEDSDKSVC (R3 Myelin Basic Protein-binding peptide)		7

Substance	Count [1]	Count [2]
HRTHLHQ (R3 Myelin Basic Protein-binding peptide)		6
KVHHLAR (R3 Myelin Basic Protein-binding peptide)		6
GVAEVGL (R3 Myelin Basic Protein-binding peptide)		6
AQFLTIY (R3 Myelin Basic Protein-binding peptide)		6
SIQTSAM (R3 Myelin Basic Protein-binding peptide)		6
HYSPNVM (R3 Myelin Basic Protein-binding peptide)		9
SWFESHN (R3 Myelin Basic Protein-binding peptide)		8
WDLRHSK (R3 Myelin Basic Protein-binding peptide)		6
QPIDSTS (R3 Myelin Basic Protein-binding peptide)		7
WDLPQNR (R3 Myelin Basic Protein-binding peptide)		6
VAHQRVS (R3 Myelin Basic Protein-binding peptide)		8
FSARTNT (R3 Myelin Basic Protein-binding peptide)		9
SLWQTLR (R3 Myelin Basic Protein-binding peptide)		6
NGPNSLQ (R3 Myelin Basic Protein-binding peptide)		6
GSPYGWG (R3 Myelin Basic Protein-binding peptide)		6
HQPLFPR (R3 Myelin Basic Protein-binding peptide)		6
SNAERWR (R3 Myelin Basic Protein-binding peptide)		9
HQMRTML (R3 Myelin Basic Protein-binding peptide)		6
SLKTTNP (R3 Myelin Basic Protein-binding peptide)		6
MDLSLKP (R3 Myelin Basic Protein-binding peptide)		10
TRIPILL (R3 Myelin Basic Protein-binding peptide)		6
RSRKHRP (R3 Myelin Basic Protein-binding peptide)		6
HLLKTHS (R3 Myelin Basic Protein-binding peptide)		7
